In patent US20250011471A1 (published 2025):
One block for each binder: values may come before it.

Target: KLB + bFKB1
Assay: SPR; preformed bFKB1/KLB complex

koff: 0.0402 s⁻¹
B1: FGFR1b (receptor)
chain: RPSPTLPEQAQPWGAPVEVESFLVHPGDLLQLRCRLRDDVQSINWLRDGVQLAESNRTRITGEEVEVQDSVPADSGLYACVTSSPSGSDTTYFSVNVSDALPSSEDDDDDDDSSSEEKETDNTKPNRMPVAPYWTSPEKMEKKLHAVPAAKTVKFKCPSSGTPNPTLRWLKNGKEFKPDHRIGGYKVRYATWSIIMDSVVPSDKGNYTCIVENEYGSINHTYQLDVVERSPHRPILQAGLPANKTVALGSNVEFMCKVYSDPQPHIQWLKHIEVNGSKIGPDNLPYVQILKTAGVNTTDKEMEVLHLRNVSFEDAGEYTCLAGNSIGLSHHSAWLTVLEALEERPAVMTSPLYLE

koff: 0.00291 s⁻¹
B2: FGFR1c (receptor)
chain: RPSPTLPEQAQPWGAPVEVESFLVHPGDLLQLRCRLRDDVQSINWLRDGVQLAESNRTRITGEEVEVQDSVPADSGLYACVTSSPSGSDTTYFSVNVSDALPSSEDDDDDDDSSSEEKETDNTKPNPVAPYWTSPEKMEKKLHAVPAAKTVKFKCPSSGTPNPTLRWLKNGKEFKPDHRIGGYKVRYATWSIIMDSVVPSDKGNYTCIVENEYGSINHTYQLDVVERSPHRPILQAGLPANKTVALGSNVEFMCKVYSDPQPHIQWLKHIEVNGSKIGPDNLPYVQILKTAGVNTTDKEMEVLHLRNVSFEDAGEYTCLAGNSIGLSHHSAWLTVLEALEERPAVMTSPLYLE
